B1: Swi3-3FLAG (natural protein, S. pombe, UniProt O14350 1-181, looked up)
chain: MSTAASDSGVEKLVEENKREEVKKNEEEKEFDLGLEENPDSVKKPRKRLAKFDEERLISENGIPKLRKMMRKVKLKGKGHEAKDLKQLLGMYHIWTHELYPRATFDDSISYLKTLGKHRSVKVRRRGWINEIAVENGSDSNASLFTGPSSNSLVNLTSGDPYVQDTADDAFVAQDNDTQLE
B2: Recombinant his-tagged FL-Hst4 (pET28a) (natural protein, S. pombe, UniProt Q9UR39 1-415, looked up)
chain: MKVEEHVPLIQESRKRKCQSSENASKRQQLLSKLPLRLHTGNENVDLSPLVSAIRKAKRIVVVTGAGISCDAGIPDFRSSEGLFSSLRAEYKLNCSGKELFDGSVYRDLKSVNIFHAMIRKLHMLSNNARPTDFHLFLSQLAQESKLLRLYTQNIDFLETRLEGLQTCIPLPQSAPWPTTIPLHGTLEVVSCTRCSFLKKFNPDIFDRNGVTVCPDCKTENEVRRIAGKRSVIEGCLRPRIVLYNEIHPDSESIGSVCSQDLKSRPDCLIVAGTSCKIPGVKRIIKEMSNCVHKQKGNVIWLNYDEPTKDFLNLCDLVVQGDLQIAIRRLKPLLDAPSWKLKSHSAKRTSKQKSSEQTKITSSTKITKAIGLNTKSNDSSKKDNTSFQLHQVLNSIEIPKVEIKQEVEYATPSPL

Assay in all cases: pull-down
In assay [1] the target is B2.
In another assay the target is Swi1-3FLAG (S. pombe, UniProt Q9UUM2 1-971).
Swi1-3FLAG, sequence (Q9UUM2 whole entry): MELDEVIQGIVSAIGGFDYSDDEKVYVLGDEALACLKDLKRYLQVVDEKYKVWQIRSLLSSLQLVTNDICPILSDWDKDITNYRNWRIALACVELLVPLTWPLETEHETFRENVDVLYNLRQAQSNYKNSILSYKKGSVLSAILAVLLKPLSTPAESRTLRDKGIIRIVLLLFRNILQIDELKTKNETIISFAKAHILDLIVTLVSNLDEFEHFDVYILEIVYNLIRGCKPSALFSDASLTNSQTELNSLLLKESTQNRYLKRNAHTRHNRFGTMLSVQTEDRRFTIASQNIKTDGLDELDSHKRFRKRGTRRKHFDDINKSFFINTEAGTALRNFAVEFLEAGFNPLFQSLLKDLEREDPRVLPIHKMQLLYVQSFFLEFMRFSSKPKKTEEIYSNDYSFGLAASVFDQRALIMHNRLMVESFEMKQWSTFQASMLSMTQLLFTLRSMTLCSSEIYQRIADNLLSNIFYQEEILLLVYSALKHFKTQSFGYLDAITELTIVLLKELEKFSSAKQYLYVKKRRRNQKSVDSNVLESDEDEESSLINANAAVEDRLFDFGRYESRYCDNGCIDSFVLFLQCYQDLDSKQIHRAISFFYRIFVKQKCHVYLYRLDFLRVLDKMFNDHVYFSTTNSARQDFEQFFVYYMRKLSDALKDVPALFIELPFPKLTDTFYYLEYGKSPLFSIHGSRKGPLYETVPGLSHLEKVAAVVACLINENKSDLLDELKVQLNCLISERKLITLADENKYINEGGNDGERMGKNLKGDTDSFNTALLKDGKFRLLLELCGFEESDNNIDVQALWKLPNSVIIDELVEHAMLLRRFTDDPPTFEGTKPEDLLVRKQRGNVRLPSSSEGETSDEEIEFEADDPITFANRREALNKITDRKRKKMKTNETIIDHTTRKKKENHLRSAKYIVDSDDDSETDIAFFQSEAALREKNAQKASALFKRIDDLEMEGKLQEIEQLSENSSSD
Assay [2] deals with DDK (Hsk1-HA with Dfp1-myc) (S. pombe, UniProt P50582 1-507; O59836 1-545).
DDK (Hsk1-HA with Dfp1-myc), sequence (P50582 whole entry, chain 1 of 2): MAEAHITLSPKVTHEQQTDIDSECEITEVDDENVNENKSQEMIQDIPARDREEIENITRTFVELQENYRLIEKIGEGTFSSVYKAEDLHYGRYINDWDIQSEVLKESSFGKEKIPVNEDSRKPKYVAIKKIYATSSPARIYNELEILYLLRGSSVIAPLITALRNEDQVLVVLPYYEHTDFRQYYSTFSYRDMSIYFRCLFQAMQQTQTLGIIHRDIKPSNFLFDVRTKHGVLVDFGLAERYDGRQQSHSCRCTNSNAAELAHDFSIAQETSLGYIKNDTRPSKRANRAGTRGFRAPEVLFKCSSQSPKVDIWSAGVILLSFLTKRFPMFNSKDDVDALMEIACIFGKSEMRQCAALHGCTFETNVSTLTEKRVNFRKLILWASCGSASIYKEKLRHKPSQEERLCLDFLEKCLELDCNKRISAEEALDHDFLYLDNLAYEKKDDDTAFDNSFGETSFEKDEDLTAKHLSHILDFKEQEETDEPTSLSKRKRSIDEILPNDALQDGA
DDK (Hsk1-HA with Dfp1-myc), sequence (O59836 whole entry, chain 2 of 2): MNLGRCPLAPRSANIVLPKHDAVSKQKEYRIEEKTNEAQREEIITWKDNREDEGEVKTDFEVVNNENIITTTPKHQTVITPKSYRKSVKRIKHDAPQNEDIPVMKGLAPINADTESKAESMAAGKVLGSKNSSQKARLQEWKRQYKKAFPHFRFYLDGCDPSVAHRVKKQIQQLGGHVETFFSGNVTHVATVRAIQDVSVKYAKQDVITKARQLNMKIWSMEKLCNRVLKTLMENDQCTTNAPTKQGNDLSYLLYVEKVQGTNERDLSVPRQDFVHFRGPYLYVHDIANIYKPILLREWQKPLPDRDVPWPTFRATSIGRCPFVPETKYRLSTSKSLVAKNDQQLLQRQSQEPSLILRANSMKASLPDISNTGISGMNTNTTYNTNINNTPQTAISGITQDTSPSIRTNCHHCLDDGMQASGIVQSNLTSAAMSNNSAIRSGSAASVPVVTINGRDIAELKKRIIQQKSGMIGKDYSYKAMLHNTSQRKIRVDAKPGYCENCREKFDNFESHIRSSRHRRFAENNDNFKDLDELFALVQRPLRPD

For the molecule B1, in assay [1], the binding result is on record as “binds”.

Regarding B2, the binding result (with Swi1-3FLAG; in assay [2]) was “binds” each time.

Source of the values: publication PMC8565929 (eLife, 2021).
